Assay: soluble on expression in E. coli; label from the status in PepcDB or PDB records

Soluble on expression in E. coli, not soluble:
MMKFKKCLLPVAMLASFTLAGCQSNADDHAADVYQTDQLNTKQETKTVNIISILPAKVAVDNSQNKRNAQAFGALIGAVAGGVIGHNVGSGSNSGTTAGAVGGGAVGAAAGSMVNDKTLVEGVSLTYKEGTKVYTSTQVGKECQFTTGLAVVITTTYNETRIQPNTKCPEKS
MVKSLQLAHQLKDKKILLIGGGEVGLTRLYKLIPTGCKLTLVSPDLHKSIIPKFGKFIQNEDQPDYREDAKRFINPNWDPTKNEIYEYIRSDFKDEYLDLEDENDAWYIIMTCIPDHPESARIYHLCKERFGKQQLVNVADKPDLCDFYFGANLEIGDRLQILISTNGLSPRFGALVRDEIRNLFTQMGDLALEDAVVKLGELRRGIRLLAPDDKDVKYRMDWARRCTDLFGIQHCHNIDVKRLLDLFKVMFQEQNCSLQFPPRERLLSEYCSS
MSIYEYFVKLHRYLLWQTKKIRALERRLHALEARLREMEAQPRTSIERIEYKFDQLKVETLEGTLNIGIAPPGAGGTIEDFAVEPVKTVIPKPEPVLMRPIQEKVAAYLNGEASETLKRLEQQYGRRLDDTYRQFILQDIARQTDERIRFYLQEKANHGYVPSGDRDEAVENEIFQKVKADIEQSLDAFLKHLPSKEGST
MMTKYGVVGTGYFGAELARFMSKVEGAKITAIYDPVNAAPIAKELNCVATATMEALCSHPDVDCVIIASPNYLHKAPVIAAAKAGKHVFCEKPIALNYQDCKDMVDACKEAGVTFMAGHVMNFFHGVRHAKALIKAGEIGEVTQVHTKRNGFEDVQDEISWKKIRAKSGGHLYHHIHELDCTLFIMDETPSLVSMAAGNVAHKGEKFGDEDDVVLITLEFESGRFATLQWGSSFHYPEHYVLIEGTTGAILIDMQNTAGYLIKAGKKTHFLVHESQAEDDDRRNGNISSEMDGAIAYGKPGKRTPMWLSSIMKLEMQYLHDVINGLEPGEEFAKLLTGEAATNAIATADAATLSSNEGRKVKLTEILG
GPGSMDTECLRARHSECIDLASVQLRRQLMDSGIPFTEAEIAALPARFVELLISRLEMFRQREVETRAAVDKCRRETEVEEMRFEQLREATERVQGEKRIISSKISAAVSEYMREDKLEKEKQRERHNELQEVFRQVEKKEAEHRREIIEMERLRKMLKKVTK
MSLVQWISPLDNSIVIASKVKILRNIKGIKFTKLLNEEEFNDLLSMVLGRLKEIDILDKCYVVKLKDGEEKIIDYYKENFGLIKYFENKDNLIFIMNKNGEFNILLNEEEHIGIECTNSGLSLREVYSKVDNLDDLIEEKIHYSFDSELGYLTSNIKNLGTALRAKVFIHLPLLSSNNLIRIIKNALKEEGITLKSIYNSGNKDVGNIYEVSNIKTLGMSEKDILDSLISITNKLILREKNQRDNLSKDEYIELKDDILRSLGVLRNTYSIDREGHHHHHH
MSLEVNVEGKLEAMQAVVGAKAVPFAGTQAEPIQIAMIYPSADTSDFWARNYIAMTKRLEELGIQFETTEFASRQIEHSLQSTYANQVVQDADLYDFVIFGPSELAIQADNIDKMAASEGFSTFVWAFHTPLKDLKNQPDGWFDFSSAAGALTMCDYMLGRLGNDVTMAMNRGIPGITDDQRSGDFKACVEEKGNWTTIYEHYGEYQREGGFEGTSLILQAYPEATVIHNANTAMAMGSVEAQISVGKEKEVFSTGWGGTGLELDAIRRGELDATPMRMGDDVGAATAEAIKAHLEGRSDELPFVFLGRITVAHDQMSAEEIDALEAEAFRFSGVGALEREGHHHHHH

Soluble on expression in E. coli, soluble:
MSLARTPNGGAIACSDAAALGKDELFWGALFRGLNRGGSFLQLQIRQIIVTAIEDGRLPLGMKMPSSRDLATVLKVSRNTVVIAYEQLVDQNFLVSRQRSGYFVAGLPKKFATEAPGLAEVTSRGDEHWVDRFAVRPSAHRNIVKPLDWQTHPYPFIFGQFDPSLFPTNDWRESARAALSVPEINNWARDLIDGDDPALIEQLQLQVLPRRGIHARADEIMMTIGAQHALYLIATLFINGQTKVGIEEPGYPDARNIFRMLTPNVVPLSVDSEGVVPDAMFQSCALAYVTSSHQCPTAVTMPLPRRIELLKAAATGDVVVVEDDYEGELMPESATLPPLKSIDRASNVLYVGSLSKALAPGLRLGYVVAPAPVIRELRALRRLMLRHPPLNNQRVAALFIGLGHYRAHLAQVGRVLLERAKLLDQLLPKHLPSCSFSRGPGSTNFWVTCPTSIDATALAEAALEQGVVIEPGAVFSMDETASRHCFRLGFSSIRTDRIEVGIQRLGEVIAQHLKAEGHHHHHH

— the DeepSol protein solubility set
